{
  "source": "patent US20150329637A1",
  "about": "(NUMAB, published 2015)",
  "binders": {"B1": {"name": "PRO165 (bispecific antibody)", "chain": "DIQMTQSPSSLSASVGDRVTITCQASENIYSFLAWYQQKPGKAPKLLIYSASKLAAGVPSRFSGSGSGTDFTLTISSLQPEDFATYYCQQTNRYSNPDIYNVFGQGTKLTVLGGGGGSEVQLVESGGGLVQPGGSLRLSCAASGFPLSSYAMIWVRQAPGKGLEWIGMILRAGNIYYASWVKGRFTISRDNSKNTVYLQMNSLRAEDTAVYYCARRHYNREGYPIGIGDLWGQGTLVTVSSGGGGSGGGGSGGGGSGGGGSDIQMTQSPSSLSASVGDRVTITCQSSESVYNNKRLSWYQQKPGKAPKLLIYTASSLASGVPSRFSGSGSGTDFTLTISSLQPEDFATYYCQGEFTCSNADCFTFGQGTKLTVLGGGGGSEVQLVESGGGLVQPGGSLRLSCAASGIDFNSNYYMCWVRQAPGKGLEWIGCIYVGSHVNTYYANWAKGRFTISRDNSKNTVYLQMNSLRAEDTAVYYCATSGSSVLYFKFWGQGTLVTVSS", "notes": "also called anti-IL23RxCD3ε scDb"}},
  "key": {"[1]": {"target": "T1, Human IL23R extracellular domain (ECD) (human, UniProt Q5VWK5 24-355)", "T1 construct": "extracellular domain; also called human IL23R ECD", "T1 sequence (looked up)": "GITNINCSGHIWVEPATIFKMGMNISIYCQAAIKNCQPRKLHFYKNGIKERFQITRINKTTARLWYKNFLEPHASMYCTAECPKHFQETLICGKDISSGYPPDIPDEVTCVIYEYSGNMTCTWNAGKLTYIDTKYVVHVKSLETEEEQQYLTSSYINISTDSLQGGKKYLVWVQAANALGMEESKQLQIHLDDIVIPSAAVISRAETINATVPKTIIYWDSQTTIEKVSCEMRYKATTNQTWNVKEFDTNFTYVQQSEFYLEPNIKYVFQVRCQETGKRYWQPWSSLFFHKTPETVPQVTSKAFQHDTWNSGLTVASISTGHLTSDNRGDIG", "test": "SPR; human IL23R ECD immobilised, scDb injected", "protocol": "[000154] For affinity measurements to IL23R, human IL23R extracellular domain (produced on request by Trenzyme) was immobilized on a sensor chip (SPR-2 Affinity Sensor High Capacity Amine, Sierra Sensors) using a standard amine-coupling procedure. Two-fold serial dilutions of scDbs ranging from 90 to 5.6 nM were injected into the flow cells for 3 min and dissociation of the protein from the immobilized IL23R on the sensor chip was allowed to proceed for 720 sec. After each injection cycle, surfaces were regenerated with a 1 min injection of 10 mM Glycine-HCl pH 2.0. The apparent dissociation (kd) and association (ka) rate constants and the apparent dissociation equilibrium constant (KD) are calculated with the MASS-1 analysis software (Analyzer, Sierra Sensors) using one-to-one Langmuir binding model."}, "[2]": {"target": "T2, human IL23R on IL-23R expressing cell lines (DLD-1, SW480, TF-1) (human, UniProt Q5VWK5 24-629)", "T2 sequence (looked up)": "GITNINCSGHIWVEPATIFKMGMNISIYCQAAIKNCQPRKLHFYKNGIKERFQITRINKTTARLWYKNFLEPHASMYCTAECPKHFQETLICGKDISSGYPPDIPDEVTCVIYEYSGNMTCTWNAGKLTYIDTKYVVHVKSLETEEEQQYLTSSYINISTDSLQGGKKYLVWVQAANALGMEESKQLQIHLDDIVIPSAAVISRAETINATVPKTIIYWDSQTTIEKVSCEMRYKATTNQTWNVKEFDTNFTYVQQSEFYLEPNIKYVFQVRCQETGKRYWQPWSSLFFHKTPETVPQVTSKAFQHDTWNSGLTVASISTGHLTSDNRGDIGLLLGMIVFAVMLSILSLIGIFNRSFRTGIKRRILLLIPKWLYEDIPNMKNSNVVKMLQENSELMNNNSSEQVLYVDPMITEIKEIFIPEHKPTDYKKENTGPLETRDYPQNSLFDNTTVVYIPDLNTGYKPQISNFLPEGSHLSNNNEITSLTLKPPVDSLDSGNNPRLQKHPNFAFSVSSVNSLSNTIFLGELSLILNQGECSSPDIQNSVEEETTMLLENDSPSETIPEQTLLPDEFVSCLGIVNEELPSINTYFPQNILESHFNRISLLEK", "test": "cell-based or functional assay"}, "[3]": {"target": "T3, human heterodimeric single-chain CD3γδ extracellular domain (produced in-house) (human)", "T3 chain": "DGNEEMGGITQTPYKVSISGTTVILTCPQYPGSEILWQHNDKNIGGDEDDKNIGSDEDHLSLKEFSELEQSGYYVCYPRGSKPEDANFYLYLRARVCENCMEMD", "test": "SPR; human single-chain CD3 ECD immobilised, scDb injected"}},
  "data": [
    {"binder": "B1", "values": [
      {"measurement": "Kd", "setting": "[1]", "value": 0.182, "unit": "nM"},
      {"measurement": "EC50 of specific target cell lysis [nM], DLD-1", "setting": "[2]", "value": 45.4, "unit": "nM"},
      {"measurement": "EC50 of specific target cell lysis [nM], SW-480", "setting": "[2]", "value": 71.7, "unit": "nM"},
      {"measurement": "EC50 of specific target cell lysis [nM], TF-1", "setting": "[2]", "value": 39.8, "unit": "nM"},
      {"measurement": "Kd", "setting": "[3]", "value": 11.6, "unit": "nM"},
      {"measurement": "koff", "setting": "[3]", "value": 0.00126, "unit": "s⁻¹"},
      {"measurement": "kon", "setting": "[3]", "value": 109000, "unit": "M⁻¹ s⁻¹"}
    ]}
  ]
}
